Source: patent publication US7910100B2, “Antibodies directed to the mammalian EAG1 ion channel protein” (Max-Planck-Gesellschaft zur Forderung der Wissen, priority 2004, dated 2011)

T1: Eag1 in rat brain sections (Rattus norvegicus, UniProt Q63472)
T1 construct: from tissue; host or cells: brain (cerebellum, hippocampus) of postnatal-day 21 Sprague Dawley rats
T1 sequence (Q63472 1-962): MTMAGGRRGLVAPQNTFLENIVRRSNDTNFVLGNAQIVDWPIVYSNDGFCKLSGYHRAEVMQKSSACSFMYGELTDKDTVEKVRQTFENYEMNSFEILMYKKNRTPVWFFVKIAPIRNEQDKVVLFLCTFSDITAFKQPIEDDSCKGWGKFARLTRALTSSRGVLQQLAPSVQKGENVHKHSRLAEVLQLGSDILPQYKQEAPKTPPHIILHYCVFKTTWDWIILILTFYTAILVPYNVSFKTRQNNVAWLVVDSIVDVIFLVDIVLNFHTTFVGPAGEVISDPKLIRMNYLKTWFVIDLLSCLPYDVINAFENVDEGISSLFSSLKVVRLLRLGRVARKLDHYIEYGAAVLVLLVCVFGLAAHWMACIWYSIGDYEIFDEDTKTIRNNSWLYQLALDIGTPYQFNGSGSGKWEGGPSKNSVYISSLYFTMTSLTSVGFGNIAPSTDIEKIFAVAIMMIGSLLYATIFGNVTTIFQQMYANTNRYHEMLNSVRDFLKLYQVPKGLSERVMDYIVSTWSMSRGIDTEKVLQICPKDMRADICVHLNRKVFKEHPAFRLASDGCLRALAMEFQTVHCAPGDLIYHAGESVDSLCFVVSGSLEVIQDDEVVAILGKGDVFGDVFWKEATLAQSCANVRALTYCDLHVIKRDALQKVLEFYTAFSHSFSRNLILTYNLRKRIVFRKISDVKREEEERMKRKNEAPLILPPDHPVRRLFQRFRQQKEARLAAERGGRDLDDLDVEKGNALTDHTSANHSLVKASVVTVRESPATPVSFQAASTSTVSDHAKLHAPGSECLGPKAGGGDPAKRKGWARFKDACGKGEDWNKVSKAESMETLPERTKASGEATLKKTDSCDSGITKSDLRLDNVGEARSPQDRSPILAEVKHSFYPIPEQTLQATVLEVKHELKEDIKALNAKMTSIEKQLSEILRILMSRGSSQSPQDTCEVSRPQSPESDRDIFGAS

B1: ImAb4: mouse monoclonal anti-Eag1 antibody, IgG2b kappa; light chain SEQ ID NO: 2, heavy chain SEQ ID NO: 4 (antibody, listed as Mus musculus)
heavy: MRVLILLWLFTAFPGILSDVQLQESGPGLVKPSQSLSLTCTVTGYSITSDYAWNWIRQFPGNKLEWMGYISYSGSTIYNPSLKSRISITRDTSKNQFFLQLNSVTTEDTATYYCARFGNYGNTLNYWGQGTSVTVSSAKTTPPSVYPLAPGCGDTTGSSVTLGCLVKGYFPESVTVTWNSGSLSSSVHTFPALLQSGLYTMSSSVTVPSSTWPSQTVTCSVAHPASSTTVDKKLEPSGPISTINPCPPCKECHKCPAPNLEGGPSVFIFPPNIKDVLMISLTPKVTCVVVDVSEDDPDVQISWFVNNVEVHTAQTQTHREDYNSTIRVVSTLPIQHQDWMSGKEFKCKVNNKDLPSPIERTISKIKGLVRAPQVYILPPPAEQLSRKDVSLTCLVVGFNPGDISVEWTSNGHTEENYKDTAPVLDSDGSYFIYSKLNMKTSKWEKTDSFSCNVRHEGLKNYYLKKTISRSPGK
light: MKLPVRLLVLMFWIPASSSDVVMTQTPLSLPVSLGDQASISCRSSQSLVHSNGNTYLHWYLQKPGQSPKLLIYKVSNRFSGVPDRFSGSGSGTDFTLKISRVEAEDLGVYFCSQSTHVPPTFGGGTKLEIKRADAAPTVSIFPPSSEQLTSGGASVVCFLNNFYPKDINVKWKIDGSERQNGVLNSWTDQDSKDSTYSMSSTLTLTKDEYERHNSYTCEATHKTSTSPIVKSFNRNEC
B2: ImAb1: mouse monoclonal anti-Eag1 antibody; VL SEQ ID NO: 43, VH SEQ ID NO: 44; binds C-terminus of Eag1 (antibody, listed as Mus musculus)
heavy: MNFGFSLIFLVLVLKGVQCEVKLVESGGGLVKPGGSLKLSCAASGFTFSNYAMSWVRQTPEKRLEWVASISSDGDTYFPDNVKGRFTISRENAGNILFLQMSSLRSEDTAMYYCARGFMITFWGQGTLVTVSAAKTTPPSVYPLAPGCGDTTGSSVTLGCLVKGYFPESVTVTWNSGSLSSSVHTFPALLQSGLYTMSSSVTVPSSTWPSQTVTCSVAHPASSTTVD
light: MDMRAPAQFFGILLLWFPGIRCDIKMTQSPSSMYASLGERVTITCKASQDIKSYLSWYQQKPWKSPKILIYYATSLADGVPSRISGSGSGQDYSLTISSLESDDTATYYCLQHGESPYTFGGGTKLEIKRADAAPTVSIFPPSSEQLTSGGASVVCFLNNFYPKDINVKWKIDGSERQNGVLNSWTDQDSKDSTYSMSSTLTLTKDEYERHNSYTCEATHKTSTSPIVKSFNRNEC

Assays:
[1] = target: T1, Eag1 in rat brain sections; assay: Immunohistochemistry of rat brain sections (cerebellum, hippocampus); assay type: binding; conditions: ImAb1 4 μg/ml, ImAb4 2 μg/ml, overnight 4° C.
Experimental: Cross-reactivity of anti-Eag1 antibodies of the invention were further analysed by Immunohistochemistry studies of rat brain sections of the cerebellum and the hippocampus. For the IHC, two postnatal-day 21 Sprague Dawley rats were anesthetized with a mixture of ketamine HCl (Ketaset; 100 mg/ml; Fort Dodge Laboratories, Inc., U.S.A.) and xylazine (Rompun; 20 mg/ml; Mile, Inc., U.S.A.) at 0.1 ml/100 g body weight. The animals were transcardially perfused with a fixative consisting of 4% p-formaldehyde in 0.12 M phosphate buffer (pH 7.2). After perfusion, brains were removed, fixed for an additional hour at 4° C., rinsed three times with PBS and stored overnight at 4° C. Coronal and sagital sections (40-50 μm) were cut in cold PBS using a vibratome (Leica, Vienna, Austria). Slices were incubated for 1 h with 10% normal goat serum in PBS, then with anti-Eag1 antibodies ImAb1 (4 μg/ml) and ImAb4 (2 μg/ml) in PBS overnight at 4° C. and processed using the avidin/biotin-peroxidase system (Vectastain kit, Vector Laboratories, Burlingame, Calif.). Antibody binding was visualized using 3′-3-diaminobenzidine tetrahydrochloride (DAB; DAB substrate kit for peroxidase, Vector Laboratories). […] Sections were analysed with a Zeiss Axiophot microscope.

[2] = test system: Eag1 overexpressing CHO K1 cells; assay: Internalization of Cy3-labelled antibodies, immunofluorescence on living cells; assay type: cell-based; conditions: Cy3-labelled antibody; for binding to Eag1 antigen on living cells: overnight; for internalization into cells: within 24 h
Experimental: In order to analyse the internalization properties of the anti-Eag1 antibodies of invention, CHO cells were grown on coverslips and incubated in normal medium (Ham's F12, 10% FCS) overnight (37 C, 5% CO2) with anti-Eag1 antibodies ImAb1 and ImAb4 directly labeled with Cy3 (100 μg). Cultures were thereafter incubated with app. 2 μg/ml Hoechst 33342 for 10 min.

[3] = test system: Eag1 peptides (pore domain / CAD domain of immunogen); assay: Epitope mapping on SPOT cellulose membrane with 76 overlapping peptides; assay type: binding; conditions: 76 overlapping 13 mer peptides, shift 2 aa; antibody diluted 1:2000

Row | Molecule | cross-reactivity with rat (IHC staining) [1] | binding to Eag1 antigen on living cells [2] | internalization into cells [2] | peptide spots bound (epitope) [3]
1 | B1 | cross-reacts with other mammalian species such as rat | bind to Eag1 antigen on living cells expressing the antigen | are internalized into the cells | bound at spots 3-8
2 | B2 | cross-reacts with other mammalian species such as rat | bind to Eag1 antigen on living cells expressing the antigen | are internalized into the cells | bound weakly to peptides 21-24
